{
  "source": "IntAct's records for PubMed 17032765",
  "parents": {"B1": {"name": "Segment polarity protein dishevelled homolog DVL-2 (Mus musculus), Q60838 (parent)", "chain": "MAGSSAGGGGVGETKVIYHLDEEETPYLVKIPVPAERITLGDFKSVLQRPAGAKYFFKSMDQDFGVVKEEISDDNARLPCFNGRVVSWLVSSDTPQPEVAPPAHESRTELVPPPPPLPPLPPERTSGIGDSRPPSFHPNVSSSHENLEPETETESVVSLRRDRPRRRDSSEHGAGGHRPGGPSRLERHLAGYESSSTLMTSELESTSLGDSDEDDTMSRFSSSTEQSSASRLLKRHRRRRKQRPPRMERTSSFSSVTDSTMSLNIITVTLNMEKYNFLGISIVGQSNERGDGGIYIGSIMKGGAVAADGRIEPGDMLLQVNDMNFENMSNDDAVRVLRDIVHKPGPIVLTVAKCWDPSPQAYFTLPRNEPIQPIDPAAWVSHSAALTGAFPAYPGSSSMSTITSGSSLPDGCEGRGLSVHMDMASVTKAMAAPESGLEVRDRMWLKITIPNAFLGSDVVDWLYHHVEGFPERREARKYASGLLKAGLIRHTVNKITFSEQCYYVFGDLSGGCESYLVNLSLNDNDGSSGASDQDTLAPLPGATPWPLLPTFSYQYPAPHPYSPQPPPYHELSSYTYGGGSASSQHSEGSRSSGSTRSDGGAGRTGRPEERAPESKSGSGSESELSSRGGSLRRGGEPGGTGDGGPPPSRGSTGAPPNLRALPGLHPYGAPSGMALPYNPMMVVMMPPPPPPVSTAVQPPGAPPVRDLGSVPPELTASRQSFHMAMGNPSEFFVDVM"}},
  "data": [
    {"variants_of": "B1", "settings": "with Ankrd6, Q69ZU8-1", "values": [
      {"variant": "K446M", "effect of a mutation on the interaction": "decreasing interaction strength"}
    ]}
  ]
}
